Measurements taken from patent publication US20200263158.

Tests used:
[1] = system: blue casein (zymogram gel substrate)
[2] = biological target: T1, tau 4R2N peptide (amino acids 335-353)
T1 chain: GQVEVKSEKLDFKDRVQSK

[3] = biological target: T2, tau FRET peptide OP-002, MCA-GGQVEVKSE{Lys(DNP)}
T2 chain: GGQVEVKSE

For “recombinant human tau 4R2N (full-length tau protein)”, which “zymogram, clearing of blue casein” value [1] is on record?
The value was “tau had the ability to cut the casein protein substrate in the zymogram”.

What about the “autoproteolysis, N-terminal Edman sequencing of fragment F3” value of the same molecule?
Its value is “The N-terminal sequence of fragment F3 was determined to be SEKLDF corresponding to amino acids 341-346 of Tau 4R2N”.

What about the “autoproteolysis, N-terminal Edman sequencing of fragments 1-4” value of the same molecule?
Its value is “The N-terminal sequence of the four fragments was the same: SKDGTG”.

B1: TP-99 (Tau 4R2N 241-340) (protein)
chain: MRLQTAPVPMPDLKNVKSKIGSTENLKHQPGGGKVQIINKKLDLSNVQSKCGSKDNIKHVPGGGSVQIVYKPVDLSKVTSKCGSLGNIHHKPGGGQVEVK
For B1, which “cleavage of peptide substrate, reverse-phase HPLC” value [2] is on record?
The value was “intact peptide which is greatly diminished in the upper trace and replaced with two smaller peaks F1 and F2 that represent fragments generated by TP-99”.

B2: TP-210 (Tau 4R2N 131-340) (protein)
chain: MSKDGTGSDDKKAKGADGKTKIATPRGAAPPGQKGQANATRIPAKTPPAPKTPPSSGEPPKSGDRSGYSSPGSPGTPGSRSRTPSLPTPPTREPKKVAVVRTPPKSPSSAKSRLQTAPVPMPDLKNVKSKIGSTENLKHQPGGGKVQIINKKLDLSNVQSKCGSKDNIKHVPGGGSVQIVYKPVDLSKVTSKCGSLGNIHHKPGGGQVEVK
With B2 as the molecule, how does the “cleavage of peptide substrate, reverse-phase HPLC” value [2] read?
The value was “intact peptide was greatly diminished in the upper trace and replaced with two smaller peaks F1 and F2 that represent fragments generated by TP-210”.

B3: Tau 4R2N 260-340 (TP-81) (protein)
chain: MIGSTENLKHQPGGGKVQIINKKLDLSNVQSKCGSKDNIKHVPGGGSVQIVYKPVDLSKVTSKCGSLGNIHHKPGGGQVEVK
Which “fluorescence of FRET peptide, plate reader” value [3] does the source give for B3 here?
Its value is “Tau 4R2N 260-340 cuts tau FRET peptide”.
